Laboratory results published in patent publication US20240101668A1 (WUGEN, published 2024).

Tests used:
huFLT3-M227-Fc = target: T1, huFLT3-M227-Fc (human, UniProt P36888 27-543); assay: BLI
T1 construct: extracellular domain; also called FLT3 Mutant

huFLT3-T227-His = target: T2, huFLT3-T227-His (human, UniProt P36888 27-543); assay: BLI
T2 construct: extracellular domain; also called FLT3 WT

[1] = target: T3, huCD33-G69 stably expressed on Jurkat cells (human, UniProt P20138 18-364); assay: FACS on cells;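 also: fixed Jurkat cells bearing either CD33 variant, barcoded by dye, exposed to myc-tagged scFv periplasmic extracts, detected with anti-myc PE antibody and read by flow cytometry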
T3 construct: whole, on cells; >200,000 receptors per cell; also called CD33 Mutant; CD33 R69G

[2] = target: T4, huCD33-R69 stably expressed on Jurkat cells (human, UniProt P20138 18-364); assay: FACS on cells;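 also: fixed Jurkat cells bearing either CD33 variant, barcoded by dye, exposed to myc-tagged scFv periplasmic extracts, detected with anti-myc PE antibody and read by flow cytometry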
T4 construct: whole, on cells; >200,000 receptors per cell; also called CD33 WT; CD33^ARG69

[3] = target: T5, huCD33-R69-His recombinant protein (human, UniProt P20138 18-259); assay: BLI
T5 construct: extracellular domain

[4] = target: T6, huCD33-G69-Fc recombinant protein (human, UniProt P20138 18-259); assay: BLI
T6 construct: extracellular domain; also called CD33 R69G
T6 sequence (P20138 18-259 R69G): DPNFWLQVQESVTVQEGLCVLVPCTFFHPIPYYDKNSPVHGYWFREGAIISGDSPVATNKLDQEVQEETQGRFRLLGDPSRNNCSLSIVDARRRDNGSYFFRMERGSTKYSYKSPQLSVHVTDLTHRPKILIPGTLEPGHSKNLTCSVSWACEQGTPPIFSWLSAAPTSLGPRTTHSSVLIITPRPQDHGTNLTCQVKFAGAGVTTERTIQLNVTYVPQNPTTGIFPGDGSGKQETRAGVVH

T3 sequence (P20138 18-364 R69G): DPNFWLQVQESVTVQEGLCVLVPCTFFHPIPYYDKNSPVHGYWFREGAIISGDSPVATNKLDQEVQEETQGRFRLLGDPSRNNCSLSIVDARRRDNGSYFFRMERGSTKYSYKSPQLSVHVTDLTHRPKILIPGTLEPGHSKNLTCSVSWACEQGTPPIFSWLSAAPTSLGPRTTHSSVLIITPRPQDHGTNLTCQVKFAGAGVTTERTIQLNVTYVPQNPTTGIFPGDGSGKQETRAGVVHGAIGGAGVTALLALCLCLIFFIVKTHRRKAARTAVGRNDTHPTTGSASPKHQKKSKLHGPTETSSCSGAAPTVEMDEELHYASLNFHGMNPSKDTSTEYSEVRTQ
T5 sequence (P20138 18-259): as the sequence (P20138 18-259 R69G) above, with G52R counted along it
T4 sequence (P20138 18-364): as the sequence (P20138 18-364 R69G) above, with G52R counted along it

B1: Polypeptide No. 277 (scFv, V domains shown)
VH: QVQLVQSGAEVKKPGSSVKVSCKASGYTFTGYYMHWVRQAPGQGLEWMGWIDPNSGGTNYAQKFQGRVTITADESTSTAYMELSSLRSEDTAVYYCARDVDTAMVTDYWGRGTLVTVSS
VL: EIVMTQSPATLSVSPGERATLSCRASQSVDNLVGWYQQKPGQAPRLLIYDISSRATGIPARFSGSGSGTEFTLTISSLQSEDFAVYYCQQYGRSPITFGQGTRLEIKR
notes: scFv
B1: binds (huFLT3-M227-Fc); binds (huFLT3-T227-His).

B2: Polypeptide No. 255 (scFv, V domains shown)
VH: QVQLVQSGAEVKKPGSSVKVSCKASGYTLTELSMHWVRQAPGQGLEWMGGIIPISGTVTYAQKFQGRVTITADESTSTAYMELSSLRSEDTAVYYCANKGQQLVRGYFQHWGQGTLVTVSS
VL: DIQMTQSPSSLSASVGDRVTITCQASHDIRNSVNWYQQKPGKAPKLLIYATSSLQSGVPSRFSGSGSGTDFTLTISSLQPEDFATYYCQQSYNTPFTFGQGTKLEIKR
notes: scFv
B2: binds (huFLT3-M227-Fc); binds (huFLT3-T227-His).

B3: Polypeptide No. 267 (scFv, V domains shown)
VH: QVQLVQSGAEVKKPGSSVKVSCKASGYTLTSFGISWVRQAPGQGLEWVGMIIPLSGTTHYAQKFQGRVTITADESTSTAYMELSSLRSEDTAVYYCANLYGGNAYYYYGMDVWGQGTTVTVSS
VL: DIQMTQSPSSLSASVGDRVTITCRASQDISNFVAWYQQKPGKAPKLLIYAASSLQSGVPSRFSGSGSGTDFTLTISSLQPEDFATYYCQQSFDTPYTFGQGTKLEIKR
notes: scFv
B3: binds (huFLT3-M227-Fc); binds (huFLT3-T227-His).

B4: Polypeptide No. 234 (scFv, V domains shown)
VH: QVQLVQSGAEVKKPGSSVKVSCKASGHTFTAYYMHWVRQAPGQGLEWMGWMSPYSGNTGYAQNFQGRVTITADESTSTAYMELSSLRSEDTAVYYCARATRGTIQHWGQGTLVTVSS
VL: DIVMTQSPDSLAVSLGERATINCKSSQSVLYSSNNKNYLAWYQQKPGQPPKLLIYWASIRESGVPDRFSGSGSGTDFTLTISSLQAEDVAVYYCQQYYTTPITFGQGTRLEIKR
notes: scFv
B4: binds (huFLT3-M227-Fc); binds (huFLT3-T227-His).

B5: Polypeptide No. 236 (scFv, V domains shown)
VH: QVQLVQSGAEVKKPGSSVKVSCKASGGTFSSYAISWVRQAPGQGLEWMGGIIPILGIANYAQKFQGRVTITADESTSTAYMELSSLRSEDTAVYYCAHVDGYGMDVWGQGTTVTVSS
VL: EIVMTQSPATLSVSPGERATLSCRASQSVSSNLAWYQQKPGQAPRLLIYDVSSRATGIPARFSGSGSGTEFTLTISSLQSEDFAVYYCQQLDAYPLTFGGGTKVEIKR
notes: scFv
B5: binds (huFLT3-M227-Fc); binds (huFLT3-T227-His).

B6: Polypeptide No. 266 (scFv, V domains shown)
VH: QVQLVQSGAEVKKPGSSVKVSCKASGYSLTELSIHWVRQAPGQGLEWMGGINPISGTANYAQKFQGRVTITADESTSTAYMELSSLRSEDTAVYYCARGTVRLNWFDPWGQGTLVTVSS
VL: EIVMTQSPATLSVSPGERATLSCRASQSVGSQLGWYQQKPGQAPRLLIYGASTRATGIPARFSGSGSGTEFTLTISSLQSEDFAVYYCQQSFSTPLTFGGGTKVEIKR
notes: scFv
B6: binds (huFLT3-M227-Fc); binds (huFLT3-T227-His).

B7: Polypeptide No. 285 (scFv, V domains shown)
VH: QVQLVQSGAEVKKPGSSVKVSCKASGYSFTNYYMHWVRQAPGQGLEWMGGIIPVFGTTTYSQTFQGRVTITADESTSTAYMELSSLRSEDTAVYYCARESQDGDFDYWGQGTLVTVSS
VL: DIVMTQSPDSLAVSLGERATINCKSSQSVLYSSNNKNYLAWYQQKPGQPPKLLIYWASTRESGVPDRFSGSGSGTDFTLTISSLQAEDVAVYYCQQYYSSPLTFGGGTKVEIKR
notes: scFv
B7: binds (huFLT3-M227-Fc); binds (huFLT3-T227-His).

B8: Polypeptide No. 274 (scFv, V domains shown)
VH: QVQLVQSGAEVKKPGSSVKVSCKASGYTFTYRYLHWVRQAPGQGLEWMGRITPISGTTNYAQKFQGRVTITADESTSTAYMELSSLRSEDTAVYYCAKDSGQLAHYGMDVWGQGTTVTVSS
VL: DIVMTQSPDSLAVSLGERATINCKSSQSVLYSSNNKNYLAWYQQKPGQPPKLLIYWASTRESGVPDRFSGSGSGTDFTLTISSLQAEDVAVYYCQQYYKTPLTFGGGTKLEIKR
notes: scFv
B8: binds (huFLT3-M227-Fc); binds (huFLT3-T227-His).

B9: Polypeptide No. 26 (scFv, V domains shown)
VH: QVQLVQSGAEVKKPGASVKVSCKASGYTFTENEMHWVRQAPGQGLEWMGWMNPNSGNTGYAQKFQGRVTMTRDTSTSTVYMELSSLRSEDTAVYYCAREGGDWPYYYMDVWGKGTTVTVSS
VL: DIQMTQSPSSLSASVGDRVTITCQASQDIRNYLNWYQQKPGKAPKLLIYAASSLQSGVPSRFSGSGSGTDFTLTISSLQPEDFATYYCQQTSSTPLTFGPGTKVDIKR
notes: scFv
B9 was tested, and the “geometric mean MFI fold change over Jurkat parental” value (“geometric mean MFI fold change” below) [1] was 2 to 10 fold, the “geometric mean MFI fold change” value [2] was < 2 fold and the binding result [3] was “no binding”. B9: binds [4].

B10: Polypeptide No. 27 (scFv, V domains shown)
VH: QVQLVQSGAEVKKPGASVKVSCKASGYTLTGYYMHWVRQAPGQGLEWMGWMNPSSGNTGYAQQFQGRVTMTRDTSTSTVYMELSSLRSEDTAVYYCARASSDRYYYDGVWYFDLWGRGTLVTVSS
VL: DIQMTQSPSSLSASVGDRVTITCRASQDIRNNLGWYQQKPGKAPKLLIYGASSLQSGVPSRFSGSGSGTDFTLTISSLQPEDFATYYCQQTYSSPPTFGQGTKLEIKR
notes: scFv
With B10 the “geometric mean MFI fold change” value [1] was 2 to 10 fold, the “geometric mean MFI fold change” value [2] was < 2 fold and the binding result [3] was “no binding”. B10: binds [4].

B11: Polypeptide No. 232 (scFv, V domains shown)
VH: QVQLVQSGAEVKKPGASVKVSCKASGYTFTSYGIHWVRQAPGQGLEWMGGIIPIFGTASYAQKFQGRVTMTRDTSTSTVYMELSSLRSEDTAVYYCTRSNGIAAAGTHWYFDLWGRGTLVTVSS
VL: DIQMTQSPSSLSASVGDRVTITCRASQNIANSLNWYQQKPGKAPKLLIYAASSLQSGVPSRFSGSGSGTDFTLTISSLQPEDFATYYCQQYSSYPPTFGPGTKVDIKR
notes: scFv
B11: binds (huFLT3-M227-Fc); binds (huFLT3-T227-His).

B12: Polypeptide No. 264 (scFv, V domains shown)
VH: QVQLVQSGAEVKKPGSSVKVSCKASGYTLTELSMHWVRQAPGQGLEWMGGIIPISSATSIPQKFQGRVTITADESTSTAYMELSSLRSEDTAVYYCARGALYSSSPVRVVAGTKGWFDPWGQGTLVTVSS
VL: DIQMTQSPSSLSASVGDRVTITCRASQDISNYLAWYQQKPGKAPKLLIYAASSLQSGVPSRFSGSGSGTDFTLTISSLQPEDFATYYCQQYYSYPLTFGGGTKVEIKR
notes: scFv
B12: binds (huFLT3-M227-Fc); binds (huFLT3-T227-His).

B13: Polypeptide No. 272 (scFv, V domains shown)
VH: QVQLVQSGAEVKKPGSSVKVSCKASGYIFTNYYIQWVRQAPGQGLEWMGGIIPIFGTVGYAQKFQGRVTITADESTSTAYMELSSLRSEDTAVYYCARGRIGGGNDYWGQGTLVTVSS
VL: DIQMTQSPSSLSASVGDRVTITCQASQYISNYLNWYQQKPGKAPKLLIYDASSLESGVPSRFSGSGSGTDFTLTISSLQPEDFATYYCQQSYSTPYTFGQGTKLEIKR
notes: scFv
B13: binds (huFLT3-M227-Fc); binds (huFLT3-T227-His).

B14: Polypeptide No. 230 (scFv, V domains shown)
VH: QVQLVQSGAEVKKPGSSVKVSCKASGGTFSSNAINWVRQAPGQGLEWMGGIIPLFGTTNYAQKFQGRVTITADESTSTAYMELSSLRSEDTAVYYCARVLSGWYGTYYFDYWGQGTLVTVSS
VL: EIVMTQSPATLSVSPGERATLSCRASQSVSADYIAWYQQKPGQAPRLLIYDVSTRASGIPARFSGSGSGTEFTLTISSLQSEDFAVYYCQHYGSSQVTFGQGTKVEIKR
notes: scFv
B14: binds (huFLT3-M227-Fc); binds (huFLT3-T227-His).

B15: Polypeptide No. 251 (scFv, V domains shown)
VH: QVQLVQSGAEVKKPGSSVKVSCKASGGTFSSDAINWVRQAPGQGLEWMGGIIPIVGTPTYAQKFQGRVTITADESTSTAYMELSSLRSEDTAVYYCAKGLAFGVFDGLDVWGQGTTVTVSS
VL: EIVMTQSPATLSVSPGERATLSCRASQSVSSNYLAWYQQKPGQAPRLLIYDVSTRATGIPARFSGSGSGTEFTLTISSLQSEDFAVYYCQQYGSSTLTFGGGTKVEIKR
notes: scFv
B15: binds (huFLT3-M227-Fc); binds (huFLT3-T227-His).

B16: Polypeptide No. 29 (scFv, V domains shown)
VH: QVQLVQSGAEVKKPGASVKVSCKASGYTFTGYYLHWVRQAPGQGLEWMGVINVRRGSTRYAQNFQGRVTMTRDTSTSTVYMELSSLRSEDTAVYYCARVSGSYYQPWGQGTLVTVSS
VL: DIQMTQSPSSLSASVGDRVTITCRASQSISRWLAWYQQKPGKAPKLLIYDASNLETGVPSRFSGSGSGTDFTLTISSLQPEDFATYYCQQGNSFPPIFGGGTKVEIKR
notes: scFv
With B16 the “geometric mean MFI fold change” value [1] was 2 to 10 fold, the “geometric mean MFI fold change” value [2] was < 2 fold and the binding result [3] was “no binding”. B16: binds [4].

B17: Polypeptide No. 31 (scFv, V domains shown)
VH: QVQLVQSGAEVKKPGSSVKVSCKASGGTFSTYAITWVRQAPGQGLEWMGGIIPIVGRANYAQKFQGRVTITADESTSTAYMELSSLRSEDTAVYYCARSGGHDLDYWGQGTLVTVSS
VL: DIQMTQSPSSLSASVGDRVTITCRASQGIGNDLGWYQQKPGKAPKLLIYGASSVQSGVPSRFSGSGSGTDFTLTISSLQPEDFATYYCQQSYSTPITFGQGTRLEIKR
notes: scFv
B17 was tested, and the “geometric mean MFI fold change” value [1] was 10 to 30 fold, the “geometric mean MFI fold change” value [2] was < 2 fold and the binding result [3] was “no binding”. B17: binds [4].

B18: Polypeptide No. 275 (scFv, V domains shown)
VH: QVQLVQSGAEVKKPGSSVKVSCKASGYTFTSYYMHWVRQAPGQGLEWMGWMNPYSGNTGYAQKFQGRVTITADESTSTAYMELSSLRSEDTAVYYCARVGSGWYSDYWGQGTLVTVSS
VL: not shown
notes: scFv
B18: binds (huFLT3-M227-Fc); binds (huFLT3-T227-His).

B19: Polypeptide No. 252 (scFv, V domains shown)
VH: QVQLVQSGAEVKKPGSSVKVSCKASGYTLTDLSIHWVRQAPGQGLEWVGGIIPMSGTANYAQKFQGRVTITADESTSTAYMELSSLRSEDTAVYYCARSSSSWPKYFQHWGQGTLVTVSS
VL: not shown
notes: scFv
B19: binds (huFLT3-M227-Fc); binds (huFLT3-T227-His).

B20: Polypeptide No. 271 (scFv, V domains shown)
VH: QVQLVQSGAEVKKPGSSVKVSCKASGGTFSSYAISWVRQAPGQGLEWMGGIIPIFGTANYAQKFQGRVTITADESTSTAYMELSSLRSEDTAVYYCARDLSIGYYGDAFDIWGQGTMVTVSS
VL: EIVMTQSPATLSVSPGERATLSCRASQSVSYNQLAWYQQKPGQAPRLLIYDISSRAAGIPARFSGSGSGTEFTLTISSLQSEDFAVYYCQQYGGLPATFGQGTRLEIKR
notes: scFv
B20: binds (huFLT3-M227-Fc); binds (huFLT3-T227-His).
